Each block holds one molecule with its values, some of them ahead of it.
Key:
[1] = target: trypsin-activated PDE6 isolated from bovine rod outer segment membranes (bovine) (UniProt P11541); assay: inhibition of enzyme activity
[2] = target: trypsin-activated PDE6 from mouse retina extracts (mouse (endogenous in retina)) (UniProt P27664); assay: inhibition of enzyme activity
mass photometry = target: the molecule itself; assay: mass photometry

Molecule: full-length Pγr (isolated protein used in PDE6 activity assays) (from UniProt P18545 1-87) (natural protein)
Ki [1]: 29.4 pM

Molecule: synthetic peptide of the 25 C-terminal residues of Pγr, Pγr-63-87 (from UniProt P18545 63-87)
Ki [2]: 2.5 µM

B1: human cone cGMP-phosphodiesterase PDE6C catalytic subunit (residues 2-830), catalytic homodimer of holoPDE6C (enzyme, UniProt P51160 2-830, looked up)
chain: GEINQVAVEKYLEENPQFAKEYFDRKLRVEVLGEIFKNSQVPVQSSMSFSELTQVEESALCLELLWTVQEEGGTPEQGVHRALQRLAHLLQADRCSMFLCRSRNGIPEVASRLLDVTPTSKFEDNLVGPDKEVVFPLDIGIVGWAAHTKKTHNVPDVKKNSHFSDFMDKQTGYVTKNLLATPIVVGKEVLAVIMAVNKVNASEFSKQDEEVFSKYLNFVSIILRLHHTSYMYNIESRRSQILMWSANKVFEELTDVERQFHKALYTVRSYLNCERYSIGLLDMTKEKEFYDEWPIKLGEVEPYKGPKTPDGREVNFYKIIDYILHGKEEIKVIPTPPADHWTLISGLPTYVAENGFICNMMNAPADEYFTFQKGPVDETGWVIKNVLSLPIVNKKEDIVGVATFYNRKDGKPFDEHDEYITETLTQFLGWSLLNTDTYDKMNKLENRKDIAQEMLMNQTKATPEEIKSILKFQEKLNVDVIDDCEEKQLVAILKEDLPDPRSAELYEFRFSDFPLTEHGLIKCGIRLFFEINVVEKFKVPVEVLTRWMYTVRKGYRAVTYHNWRHGFNVGQTMFTLLMTGRLKKYYTDLEAFAMLAAAFCHDIDHRGTNNLYQMKSTSPLARLHGSSILERHHLEYSKTLLQDESLNIFQNLNKRQFETVIHLFEVAIIATDLALYFKKRTMFQKIVDACEQMQTEEEAIKYVTVDPTKKEIIMAMMMTACDLSAITKPWEVQSQVALMVANEFWEQGDLERTVLQQQPIPMMDRNKRDELPKLQVGFIDFVCTFVYKEFSRFHKEITPMLSGLQNNRVEWKSLADEYDAKMKVIEEEA
stoichiometry N (mass photometry): 2

The next lines start with the values.

Ki [1]: 75.5 pM
Molecule: full-length Pγc (isolated protein used in PDE6 activity assays) (from UniProt Q13956 1-83) (natural protein)

Ki [2]: 8.2 µM
Molecule: synthetic peptide of the C-terminus of Pγc, Pγc-59-83 (from UniProt Q13956 59-83)

Reference: paper PMC11725853 (Proceedings of the National Academy of Sciences of the …, 2024)
